Assays:
[1] = system: O=C(O)[C@@H]1C[C@@H](O)CN1; assay: purified protein; settings: Tris 20 mM/EDTA 1 mM, pH 8-9 (optimum buffer), 37 C, 10-160 mM substrate
[2] = system: O=C(O)[C@H]1C[C@@H](O)CN1; assay: purified protein; settings: Tris 20 mM/EDTA 1 mM, pH 8-9 (optimum buffer), 37 C, 10-160 mM substrate

Substance: PaHyPRE (Pseudomonas aeruginosa PAO1)
- Km [1]: 15.9 mM
- Km [2]: 18.5 mM
